# Target: pMHC monomer containing HLA-A*02:01 restricted NY-ESO-1 C9V peptide (human)
# Assay: capture of TCR-transduced PBMCs on pMHC-labeled nanovials (20 µg/ml pMHC), flow cytometry
substance,measurement,value
1G4 TCR,fraction of bound live cells with NGFR expression,93.9%
